Reference: publication PMC6406459, “Hyperoxidation of Peroxiredoxin 6 Induces Alteration from Dimeric to Oligomeric State” (Antioxidants, 2019)

B1: reduced rat peroxiredoxin 6 (Cys47-SH) (enzyme, UniProt O35244 1-224, looked up)
chain: MPGGLLLGDEAPNFEANTTIGHIRFHDFLGDSWGILFSHPRDFTPVCTTELGRAAKLAPEFAKRNVKLIALSIDSVEDHFAWSKDINAYNGAAPTEKLPFPIIDDKDRDLAILLGMLDPAEKDEKGMPVTARVVFIFGPDKKLKLSILYPATTGRNFDEILRVVDSLQLTASNPVATPVDWKKGESVMVLPTLPEEEAKQLFPKGVFTKELPSGKKYLRYTPQP
notes: Peroxiredoxin 6, rat, UniProtKB O35244, 224 amino acids as in the cDNA, without any vector derived residues; Kept reduced by 1 mM DTT in 50 mM Tris-HCl, 100 mM NaCl pH 7.4; also called reduced Prdx6; rPrdx6; source: reduced with 1 mM DTT; not shown: intein tag, C-terminal, cleaved
B2: hyperoxidized rat peroxiredoxin 6 (C47 sulfinic acid or sulfonic acid) (enzyme, UniProt O35244 1-224, looked up)
chain: B1 chain
modifications: C47 sulfinic acid or sulfonic acid (Cys47-SO2H or Cys47-SO3H)
notes: Peroxiredoxin 6, rat, UniProtKB O35244, 224 amino acids as in the cDNA, without any vector derived residues; Cys47 hyperoxidized by H2O2; Same purified protein as m1, treated with 500 uM H2O2 in 50 mM Tris-HCl, 100 mM NaCl pH 7.4; also called hyperoxidized Prdx6; oxidized Prdx6; source: incubated with 500 uM H2O2 at room temperature for 30 min to 1 h; not shown: intein tag, C-terminal, cleaved

Biological target: the molecule itself
Experiment: native gel or EMSA; native PAGE, continuous 7.5% polyacrylamide gel, non-reducing and non-denaturing; samples in 50 mM Tris-HCl, 100 mM NaCl pH 7.4; running buffer 30 mM beta-alanine, 20 mM lactic acid pH 3.8, 180 V, 2 h, reverse polarity; markers bovine albumin and horse ferritin

Protein | stoichiometry N | binding result
B1 | 2 | 
B2 |  | binds
